Reference: publication PMC9352680, “A comprehensive thermodynamic model for RNA binding by the Saccharomyces cerevisiae Pumilio protein PUF4”
Substitutions are numbered along the chain they refer to. Names may count otherwise.

Biological target: T1, PUF4 RNA-binding domain (Saccharomyces cerevisiae, UniProt P25339 537-888)
T1 sequence: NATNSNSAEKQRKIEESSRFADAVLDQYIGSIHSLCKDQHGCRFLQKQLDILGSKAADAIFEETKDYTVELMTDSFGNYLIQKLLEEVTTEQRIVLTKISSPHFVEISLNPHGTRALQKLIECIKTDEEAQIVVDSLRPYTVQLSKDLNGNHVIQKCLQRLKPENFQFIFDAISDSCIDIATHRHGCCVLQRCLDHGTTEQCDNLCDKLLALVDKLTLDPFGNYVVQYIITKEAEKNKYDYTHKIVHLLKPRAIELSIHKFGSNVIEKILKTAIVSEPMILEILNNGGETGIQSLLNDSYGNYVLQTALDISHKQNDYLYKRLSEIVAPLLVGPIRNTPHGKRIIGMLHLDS
Assay: Mg; RNA-MaP; 20 mM Na-HEPES pH 7.4, 30 mM KOAc, 0.75 mM MgCl2, 0.1% Tween-20, 5% glycerol, 0.1 mg/mL BSA, 2 mM DTT; 25 C; 0.0125-409.6 nM protein
Settings: tags: N-His6-TEV cleaved; C-SNAP kept, Cy3B-labelled; label: tethered on chip by stalled RNA polymerase

B1: Ib_S1_P5E.1_K5.1_C5.1_H5.1_A5.1_[T5A]_F5.1_[T8G]_T5.1 (ssRNA)
RNA: UCUCUUUGUAAUAGUAUCUCUU
- Kd: 21.4 nM

B2: Id_ii_S2_P4E.3_K4.2_C4.2_[T-1A]_H4.2_A4.1_F4.1_T4.2_[G10T] (ssRNA)
RNA: UUUGAUUAAUAUGAUAUCGUUCUUUCUCAUAUAUAUUAUUUUCUUUCUCGAUAUCAUAUUAAUCUUU
- Kd: 8.24 nM

B3: Id_ii_S2_P4E.4_K4.3_C4.2_[C-2G]_[T-1C]_H4.3_A4.1_F4.1_T4.2_[G10A]_[T11A] (ssRNA)
RNA: B2 RNA with C28G, A29C, U30A, A31C, U32A, A33C, U39A, U40A
- Kd: 23.6 nM

B4: Id_ii_S2_P4E.4_K4.3_C4.2_[C-2A]_[T-1C]_H4.3_A4.1_F4.1_T4.2_[G10A]_[T11A] (ssRNA)
RNA: B2 RNA with C28A, A29C, U30A, A31C, U32A, A33C, U39A, U40A
- Kd: > 2300 nM

B5: Id_ii_S2_P4E.4_K4.3_C4.2_[C-2G]_H4.3_A4.1_F4.1_T4.2_[G10T]_[T11A] (ssRNA)
RNA: B2 RNA with C28G, A29U, U30A, A31C, U32A, A33C, U40A
- Kd: 0.496 nM

B6: Id_ii_S2_P4E.4_K4.3_C4.2_[C-2T]_[T-1A]_H4.3_A4.1_F4.1_T4.2_[G10T]_[T11A] (ssRNA)
RNA: B2 RNA with C28U, U30A, A31C, U32A, A33C, U40A
- Kd: 882 nM

B7: Id_ii_S2_P4E.3_K4.2_C4.2_[T-1A]_H4.2_A4.1_F4.1_T4.2_[G10A] (ssRNA)
RNA: B2 RNA with U39A
- Kd: 10.1 nM

B8: Id_ii_S2_P4E.3_K4.2_C4.2_[T-1A]_H4.2_A4.1_F4.1_T4.2_[G10A]_[T11C] (ssRNA)
RNA: B2 RNA with U39A, U40C
- Kd: 17.8 nM

B9: Id_ii_S2_P4E.4_K4.3_C4.2_[C-2T]_[T-1A]_H4.3_A4.1_F4.1_T4.2_[G10A]_[T11A] (ssRNA)
RNA: B2 RNA with C28U, U30A, A31C, U32A, A33C, U39A, U40A
- Kd: > 2300 nM

B10: Id_ii_S2_P4E.4_K4.3_C4.2_[C-2T]_H4.3_A4.1_F4.1_T4.2 (ssRNA)
RNA: B2 RNA with C28U, A29U, U30A, A31C, U32A, A33C, U39G
- Kd: 2020 nM

B11: Id_ii_S2_P4E.4_K4.3_C4.2_[C-2T]_[T-1C]_H4.3_A4.1_F4.1_T4.2_[G10A]_[T11A] (ssRNA)
RNA: B2 RNA with C28U, A29C, U30A, A31C, U32A, A33C, U39A, U40A
- Kd: > 2300 nM

B12: Id_ii_S2_P4E.4_K4.3_C4.2_[C-2A]_[T-1C]_H4.3_A4.1_F4.1_T4.2_[G10C] (ssRNA)
RNA: B2 RNA with C28A, A29C, U30A, A31C, U32A, A33C, U39C
- Kd: > 2300 nM

B13: Id_ii_S2_P4E.4_K4.3_C4.2_[C-2T]_[T-1C]_H4.3_A4.1_F4.1_T4.2_[G10T]_[T11A] (ssRNA)
RNA: B2 RNA with C28U, A29C, U30A, A31C, U32A, A33C, U40A
- Kd: 479 nM

B14: Id_ii_S2_P4E.4_K4.3_C4.2_[C-2A]_H4.3_A4.1_F4.1_T4.2_[G10C]_[T11A] (ssRNA)
RNA: B2 RNA with C28A, A29U, U30A, A31C, U32A, A33C, U39C, U40A
- Kd: 11.4 nM

B15: Id_ii_S2_P4E.3_K4.2_C4.2_H4.2_A4.1_F4.1_T4.2_[G10A]_[T11C] (ssRNA)
RNA: B2 RNA with A29U, U39A, U40C
- Kd: 14 nM

B16: Id_ii_S2_P4E.4_K4.3_C4.2_[C-2G]_H4.3_A4.1_F4.1_T4.2_[G10C]_[T11C] (ssRNA)
RNA: B2 RNA with C28G, A29U, U30A, A31C, U32A, A33C, U39C, U40C
- Kd: 0.865 nM

B17: Id_ii_S2_P4E.4_K4.3_C4.2_[C-2T]_[T-1A]_H4.3_A4.1_F4.1_T4.2_[G10T] (ssRNA)
RNA: B2 RNA with C28U, U30A, A31C, U32A, A33C
- Kd: 2160 nM

B18: Id_ii_S2_P4E.4_K4.3_C4.2_[C-2T]_[T-1C]_H4.3_A4.1_F4.1_T4.2_[G10C]_[T11C] (ssRNA)
RNA: B2 RNA with C28U, A29C, U30A, A31C, U32A, A33C, U39C, U40C
- Kd: > 2300 nM

B19: Id_ii_S2_P4E.3_K4.2_C4.2_H4.2_A4.1_F4.1_T4.2_[G10A] (ssRNA)
RNA: B2 RNA with A29U, U39A
- Kd: 9.82 nM

B20: Id_ii_S2_P4E.4_K4.3_C4.2_[C-2G]_[T-1C]_H4.3_A4.1_F4.1_T4.2 (ssRNA)
RNA: B2 RNA with C28G, A29C, U30A, A31C, U32A, A33C, U39G
- Kd: 448 nM

B21: Id_ii_S2_P4E.3_K4.2_C4.2_H4.2_A4.1_F4.1_T4.2_[T11C] (ssRNA)
RNA: B2 RNA with A29U, U39G, U40C
- Kd: 7.25 nM

B22: Id_ii_S2_P4E.4_K4.3_C4.2_[C-2T]_[T-1C]_H4.3_A4.1_F4.1_T4.2_[G10T] (ssRNA)
RNA: B2 RNA with C28U, A29C, U30A, A31C, U32A, A33C
- Kd: 1530 nM

B23: Id_ii_S2_P4E.4_K4.3_C4.2_[C-2T]_H4.3_A4.1_F4.1_T4.2_[G10C]_[T11A] (ssRNA)
RNA: B2 RNA with C28U, A29U, U30A, A31C, U32A, A33C, U39C, U40A
- Kd: 198 nM

B24: Id_ii_S2_P4E.4_K4.3_C4.2_[C-2T]_[T-1A]_H4.3_A4.1_F4.1_T4.2_[G10C]_[T11A] (ssRNA)
RNA: B2 RNA with C28U, U30A, A31C, U32A, A33C, U39C, U40A
- Kd: 2190 nM

B25: Id_ii_S2_P4E.4_K4.3_C4.2_[C-2A]_[T-1C]_H4.3_A4.1_F4.1_T4.2_[G10T]_[T11A] (ssRNA)
RNA: B2 RNA with C28A, A29C, U30A, A31C, U32A, A33C, U40A
- Kd: 592 nM

B26: Id_ii_S2_P4E.4_K4.3_C4.2_[C-2T]_H4.3_A4.1_F4.1_T4.2_[G10A]_[T11A] (ssRNA)
RNA: B2 RNA with C28U, A29U, U30A, A31C, U32A, A33C, U39A, U40A
- Kd: 806 nM

B27: Id_ii_S2_P4E.4_K4.3_C4.2_[C-2A]_H4.3_A4.1_F4.1_T4.2_[G10T] (ssRNA)
RNA: B2 RNA with C28A, A29U, U30A, A31C, U32A, A33C
- Kd: 12.3 nM

B28: Id_ii_S2_P4E.4_K4.3_C4.2_[C-2A]_[T-1A]_H4.3_A4.1_F4.1_T4.2_[G10A] (ssRNA)
RNA: B2 RNA with C28A, U30A, A31C, U32A, A33C, U39A
- Kd: > 2300 nM

B29: Id_ii_S2_P4E.3_K4.2_C4.2_[T-1A]_H4.2_A4.1_F4.1_T4.2_[G10A]_[T11A] (ssRNA)
RNA: B2 RNA with U39A, U40A
- Kd: 37.6 nM
